According to patent publication US20220096654A1, “PYRROLOBENZODIAZEPINE-ANTIBODY CONJUGATES AND USES THEREOF” (ADC THERAPEUTICS SA, priority 2020, published 2022):

B1: YTH24.5-B1: rat IgG2b anti-CD45 antibody YTH24.5 conjugated to cleavable PBD drug-linker B1 (drawing 43) (conjugate)
heavy: QVNLLQSGAALVKPGASVKLSCKASSYTFTDYYIHWVKQSHGKTLEWIGYINPKSGFTNYNEKFRRKATLTVDKSTNTAYMDISRLTSEDSATYYCTRRTGVIPMDAWGQGASVTVSSAQTTAPSVYPLAPGCGDTTSSTVTLGCLVKGYFPEPVTVTWNSGALSSDVHTFPAVLQSGLYTLTSSVTSSTWPSQTVTCNVAHPASSTKVDKKVERRNGGIGHKCPTCPTCHKCPVPELLGGPSVFIFPPKPKDILLISQNAKVTCVVVDVSEEEPDVQFSWFVNNVEVHTAQTQPREEQYNSTFRVVSALPIQHQDWMSGKEFKCKVNNKALPSPIEKTISKPKGLVRKPQVYVMGPPTEQLTEQTVSLTCLTSGFLPNDIGVEWTSNGHIEKNYKNTEPVMDSDGSFFMYSKLNVERSRWDSRAPFVCSVVHEGLHNHHVEKSISRPPGK
light: DVVMTQTPVSLSVSLGGQVSISCRSSQSFVSSDGNTYLNWYLQKPGQSPQLLIYKVSNRLSGVPDRFSGSGSGTDFTLKISRVEHDDLGVYYCGQASKIPLTFGSGTKLEIKRADAAPTVSIFPPSMEQLTSGGATVVCFVNNFYPRDISVKWKIDGSEQRDGVLDSVTDQDSKDSTYSMSSTLSLTKVEYERHNLYTCEVVHKTSSSPVVKSFNRNEC
B2: YTH54.12-B1: rat IgG2b anti-CD45 antibody YTH54.12 conjugated to cleavable PBD drug-linker B1 (drawing 43) (conjugate)
heavy: EVQLVESGGGLVQPGGSMKLSCAASGFTFSDYYMAWVRQAPKKGLEWVASMSFAGSSTYYGDSVKGRFTISRDNAKTTLYLQMNSLRSEDTATYYCARMYTTDYYLYWYFDFWGPGTMVTVSSAQTTAPSVYPLAPGCGDTTSSTVTLGCLVKGYFPEPVTVTWNSGALSSDVHTFPAVLQSGLYTLTSSVTSSTWPSQTVTCNVAHPASSTKVDKKVERRNGGIGHKCPTCPTCHKCPVPELLGGPSVFIFPPKPKDILLISQNAKVTCVVVDVSEEEPDVQFSWFVNNVEVHTAQTQPREEQYNSTFRVVSALPIQHQDWMSGKEFKCKVNNKALPSPIEKTISKPKGLVRKPQVYVMGPPTEQLTEQTVSLTCLTSGFLPNDIGVEWTSNGHIEKNYKNTEPVMDSDGSFFMYSKLNVERSRWDSRAPFVCSVVHEGLHNHHVEKSISRPPGK
light: DVQMTQSPSYLAASPGESVSISCKASKSISNYLAWYQQKPGEANKILIYSGSTLQSGTPSRFSGSGSGTDFSLTIRNLEPEDFAVYYCQQYDEKPLTFGSGTKLEIKRADAAPTVSIFPPSMEQLTSGGATVVCFVNNFYPRDISVKWKIDGSEQRDGVLDSVTDQDSKDSTYSMSSTLSLTKVEYERHNLYTCEVVHKTSSSPVVKSFNRNEC

Columns and labels:
[1] = system: luciferase expressing human CD45+ Jurkat cells; experiment: Jurkat leukaemia model in NSG mice (bioluminescence, survival); format: in vivo; conditions: 1 mg/kg; for mice remained leukaemia free: day 16
Protocol: Adult NSG mice were sublethally irradiated with 2 Gy on the day before injection of cells. 5×10^6 fire fly luciferase expressing Jurkat cells in PBS were injected intravenously into the tail vein of mice. On the following day PBS, MAbs or ADC were injected intravenously into the tail vein at a dose of 1 mg/kg. Mice were regularly monitored for signs of morbidity and weight loss for the duration of the experiment. For imaging, mice were injected intraperitoneally with 3 mg D-luciferin in PBS. Mice were initially anesthetized with 4% isoflurane and then maintained at 2% isoflurane. Ten minutes after injection of D-luciferin, mice were imaged inside a IVIS Lumina III (PerkinElmer). A sub-saturating image was captured using the auto-exposure setting in the Living Image software.

[2] = system: OCIM1 (CD45+); experiment: Cell viability assay 72 h (PrestoBlue), OCIM1; format: cell-based, human; conditions: drug-linker B1
Protocol: (§1) OCIM1, Jurkat and Nalm6 cells were seeded at 0.5×10^5/mL were cultured for 72 hours in presence of Mab or ADC or medium (in triplicate wells) in wells of flat bottom 96-well plates. 293T cells were seeded at 9.3×10^3 cells per well in flat bottom 96-well plates and allowed to adhere the plate for up to 24 hours. 293T cells were subsequently cultured with Mab or ADC or medium (in triplicate wells) for 72 hours. PrestoBlue® Cell viability Reagent (Thermo Fisher Scientific) was added to each and incubated for up to 1.5 hours. Fluorescence intensity from each well was detected using a FLUOstar OPTIMA microplate reader (BMG Labtech). Data points are mean±s.d. for representative experiments.

[3] = system: Jurkat (CD45+); experiment: Cell viability assay 72 h (PrestoBlue), Jurkat; format: cell-based, human; conditions: drug-linker B1
Protocol: as §1

[4] = 1 mg/kg, NSG mice; for T %: serum ELISA
Protocol: Adult (non-humanized) NSG mice were injected with 1 mg/kg ADC. Three mice were used for each ADC. Samples were taken from mice at between 3 h and 168 h after injection. Serum samples were analyzed by ELISA using recombinant human CD45 (Bio-Techne). Goat anti-rat IgG (H+L) (cross absorbed) and sulfoTAG Streptavidin was used to detect the total amounts of the YTH antibodies. Anti-drug antibody was used to detect the level of conjugated antibody.

[5] = system: human CD34+ cells; experiment: Ex vivo treatment of CD34+ cells with Mab or ADC prior to engraftment in NSG mice; conditions: CD34+ cells treated at 1 nM and 0.1 nM for 4 hours before transplantation; week 8
Protocol: Adult female NSG mice were sublethally irradiated with 2.5 Gy on the day before transplantation. Cryopreserved purified CD34+ cells from mobilized peripheral blood from a normal donor were thawed and cultured in complete medium (RPMI 1640 plus 10% fetal calf serum) in presence of Mab, ADC or medium alone for 4 hours. Cells were washed in phosphate buffered saline (PBS) and 0.5×10^6 cells in PBS were injected intravenously into the tail vein of mice. Engraftment of transplanted human cells (hCD45+) in the bone marrow of mice was determined by flow cytometry at 8 weeks after transplantation.

[6] = system: Nalm6 (CD45-); experiment: Cell viability assay 72 h (PrestoBlue), Nalm6; format: cell-based, human; conditions: drug-linker B1
Protocol: as §1

[7] = system: fLuc+ OCIM1 cells; experiment: AML model in NSG mice, treatment the day after cell injection; format: in vivo; conditions: for tumor (bioluminescence) signal: 1 mg/kg or 5 mg/kg i.v. the day after OCIM1 injection; for mice developing tumor / tumor signal: 1 mg/kg or 5 mg/kg i.v., cohorts of 5 mice
Protocol: NSG mice were transplanted with 7.5×10^6 luciferase expressing fLuc+ OCIM1 cells i.v. On the following day, unconjugated rat IgG2b antibodies or ADCs were injected i.v. via a tail vein at a dose of 1 mg/kg or 5 mg/kg. Mice were regularly monitored for signs of morbidity for the duration of the experiment. For imaging, mice were injected intraperitoneally with 200 μl of 15 mg/mL D-luciferin (Regis Technologies) in PBS. Mice were subsequently anesthetized with 4% isoflurane and maintained at 2% isoflurane. Ten minutes after injection of D-luciferin, mice were placed with anterior side up inside a IVIS Lumina III (PerkinElmer). A sub-saturating image was captured using the auto-exposure setting in the Living Image software (v4.5). Quantification and preparation of images was also carried out using the same software.

[8] = system: 293T (CD45-); experiment: Cell viability assay 5 days (PrestoBlue), 293T; format: cell-based, human; conditions: rat IgG2b ADC, n=3
Protocol: (§2) OCIM1, Jurkat and Nalm6 cells were seeded at a final concentration of 1.275×10^4/mL and for 5 days in presence of rat IgG2b Mab or ADC or medium (in triplicate) in wells of flat bottom 96-well plates. 293T cells were seeded at 9.3×10^3 cells per 100 uL per well in flat bottom 96-well plates and allowed to adhere the plate for up to 24 hours. 293T cells were subsequently cultured with rat IgG2b Mabs or ADC or medium (in triplicate wells) as described above. PrestoBlue® Cell viability Reagent (Thermo Fisher Scientific) was added to each and incubated for up to 1.5 hours. Fluorescence intensity from each well was detected using a FLUOstar OPTIMA microplate reader (BMG Labtech). Data was plotted using Prism 8.0 and sigmoid dose-response non-linear regression was used to determine EC50 values. Data points are mean±s.d. for representative experiments.

[9] = system: human CD45+ cells; experiment: Engraftment of a second transplant of GFP+ autologous CD34+ cells in humanised NSG mice after conditioning; format: in vivo; conditions: 1 mg/kg (combination 0.5 mg/kg each); 9 weeks after GFP+ cell transplant
Protocol: Adult female NSG mice were sublethally irradiated with 2.5 Gy on the day before transplantation (day −1). Cryopreserved purified CD34+ cells from mobilized peripheral blood from a normal donor were thawed and 0.5×10^6 cells in PBS were injected intravenously into the tail vein of mice (day 0). Human engraftment (human CD45+ cells) in the blood of mice was assessed at week 8. Mice were assigned to treatment cohorts so that the median human CD45+ engraftment in the blood for each cohort was as similar as possible. Mice were injected with 1 mg/kg Mab or ADC or a combination of YTH MAbs (0.5 mg/kg each) or YTH ADCs (0.5 mg/kg each) intravenously via the tail vein. Mice were subsequently transplanted with lentivirally transduced green fluorescent protein (GFP) autologous CD34+ cells (Week 10). A separate cohort of sublethally irradiated (non-humanized) NSG were injected with the same batch of GFP transduced cells served as a positive control for GFP+ human cell engraftment. Nine weeks after GFP+ cell transplant, mice were culled and blood, spleen and bone marrow taken for analysis.

[10] = system: Nalm6 (CD45-); experiment: Cell viability assay 5 days (PrestoBlue), Nalm6; format: cell-based, human; conditions: rat IgG2b ADC, n=3
Protocol: as §2

[11] = Dosimetry in non-humanised NSG mice; format: in vivo; conditions: non-humanised NSG mice, monitored 2 weeks
Protocol: For dosimetry in non-humanised NSG mice, adult NSG mice were injected intravenously via the tail vein with unconjugated Mab or ADC up to 5 mg/kg. Mice regularly monitored over a period of 2 weeks for any signs of morbidity. Mice were culled if rapid weight loss (>15%) occurred over a period of 2 days.

| Molecule | surviving mice at end of day 70 [1] | mice remained leukaemia free [1] | EC50 values, viability assay, OCIM1 (CD45+) [2] | EC50 values, viability assay, Jurkat (CD45+) [3] | time after injection by which below the lower limit of detection [4] [days] | T % [4] [days] | engraftment of human CD45+ cells in the bone marrow of NSG mice [5] | EC50 [6] [nM] | tumor (bioluminescence) signal [7] | mice developing tumor / tumor signal [7] | EC50 [8] [nM] | GFP+CD34+ out of total human CD34+ cells in the bone marrow [9] [%] | EC50 [10] [pM] | Comment (survival / culling) ([11]; 0.5 mg/kg i.v.) | Comment (survival / culling) ([11]; 5 mg/kg i.v.) | AUC relative to YTH24.5-PBD [4] [times] |
| --- | --- | --- | --- | --- | --- | --- | --- | --- | --- | --- | --- | --- | --- | --- | --- | --- |
| B1 | had surviving mice | 5 of 5 | low pM range | low pM range | ~4 | 1.49 | prevented engraftment | 2.83 | Low/absent tumor signal | 1 out of 5 | > 6 | ~80 | 9.34 | All alive at day 14 | All alive at day 14 |  |
| B2 | had surviving mice | 4 of 5 | low pM range | low pM range | ~4 | 1.53 | prevented engraftment | 4.23 | increasing tumor signal from day 18 onwards | 1 out of 5 | > 6 | ~80 | 9.64 | All alive at day 14 | All alive at day 14 | ~1.5 |
